Laboratory results: patent US10080776B2, “Molecular marker for cancer stem cell” (Sapporo Medical University, priority 2008, dated 2018)
“Also recorded” adds a separate entry of the source. No end group written: not given here.

How the values were obtained:
HLA-A2402 = HLA-A2402 (Homo sapiens, UniProt P04439, D101N/D140Y/D185E/E176V/E190D/F33S/G103R/G107R/I119L/I121M/I306V/K335N/L105A/L180Q/L300P/N151K/N90K/Q86E/Q94H/R106L/R138H/R89G/T104I/T345S/V100E/W191G/Y123F); test: HLA-A24 peptide binding assay of or7c1-derived peptides; details: T2A24 cells, fluorescence of HLA-A24 antibody
Procedure: Cell line T2A24 for which HLA-A2402 had been gene-transferred to peptide transporter-deficient T2 cells was used in an assay, and experiment was carried out in the same way as in Experimental Example 16. In this Experimental Example, SL-8 was used as a negative control, and survivin-2B (SEQ ID No: 72) was used as a positive control.
The peptides below were prepared in the same way as in Experimental Example 26, and a binding assay was carried out.

[1] = system: T2A24 cells pulsed with peptide; test: Cr51 cytotoxicity assay: SOX2 peptide-induced CTLs against peptide-pulsed T2A24; assay type: cell-based, human; details: Cr51 release, 4 hours
Procedure: 50 mL of peripheral blood from HLA-A24-positive lung cancer patients who gave informed consent and HLA-A24-positive healthy subjects was centrifuged in a Ficoll-Conray density gradient, and peripheral blood mononuclear cells (PBMC) were separated and collected. Subsequently, lymphocytes of PBMC were separated into CD8-positive lymphocytes and CD8-negative lymphocytes using CD8 MACS beads.
In a 96 well plate, 200000 cells/well of CD8-negative lymphocytes and the above-mentioned HLA-A24 binding SOX2 peptide were mixed, and the mixture was allowed to stand at room temperature for 2 hours, and then subjected to a degree of 100 Gy radiation treatment. […] The peptide-specific reactivity of the induced CTLs was evaluated by a cytotoxicity assay or an ELISPOT assay.
Cr^51 was added to T2A24 cells, the cells were cultured in RPMI medium at 37° C. for 1 hour, radiolabeled, and washed with RPMI medium 4 times. […] Supernatant was then collected, and the gamma-ray dose was measured using a gamma counter.
The dose when only RPMI medium and peptide-pulsed T2A24 were cultured was defined as spontaneous release (SPR), the dose when cell lysate (2% NP40) and peptide-pulsed T2A24 were cultured was defined as maximum release (MXR), and cellular cytotoxicity was calculated as (measured value−SPR)/(MXR−SPR)×100.

[2] = system: T2A24 pulsed with peptide; test: 51Cr release assay with CTLs and or7c1 peptide-pulsed T2A24; assay type: cell-based, human; details: T2A24 pulsed with 5 μg/mL peptide, E/T ratios of 20 and 6
Procedure: PBMC was separated from whole blood (heparin added) sampled from a test subject using Lymphoprep (Nycomed). After PBMC was cultured at 37° C. for 24 hours, an experiment was carried out using non-adherent cells. In order to obtain CD8-positive cells from the non-adherent cells, CD8-positive and -negative cells were separated using a magnetic cell separation system (Miltenyi Biotech). For CD8-negative cells, 100 U/mL IL-2 and 1 μg/mL PHA-P were added to AIM-V medium (Life Technologies) to give PHA-blast. The CD8-positive cells were cultured in AIM-V medium at 37° C. and stimulated with ⅕ the amount of PHA-blast three times every 7 days (0th day, 7th day, 14th day). From the 8th day, 50 U/mL of IL-2 was added to the medium, and thereafter every 3 to 4 days the medium was exchanged, and 50 U/mL of IL-2 was added. The cells were subjected as CTLs to ELISPOT on the 21st day and a ^51Cr release assay on the 28th day.
In an assay for measuring cellular cytotoxicity, cells were labeled with radioactive ^51Cr, and cellular cytotoxicity by CTLs was measured. CTLs were used as effector cells, and T2A24, K562, Sw480, and Sw480 constitutively expressing or7c1 were used as target cells. […] Kill %=(measured release−spontaneous release)×100/(maximum release−spontaneous release)

FYGTGFGVYL (peptide fragment of OR7C1) [251(10)]
binding to HLA-A2402 (HLA-A2402): binding to HLA-A2402 was observed

HYTViMNPQL (HYTVIMNPQL; not fully specified (residue 5); printed as HYTViMNPQL) [131(10)]
binding to HLA-A2402 (HLA-A2402): binding to HLA-A2402 was observed

KYRPRRKTKTL [SOX2_109 peptide, KYRPRRKTKTL]
cellular cytotoxicity of CTLs against peptide-pulsed T2A24 [1]: strong radiation was detected; also recorded: extremely high level of cytotoxicity

MYLVTFTGNL (peptide fragment of OR7C1) [34(10)]
binding to HLA-A2402 (HLA-A2402): binding to HLA-A2402 was observed

MYTMVTPML (peptide fragment of OR7C1) [277(9)]
binding to HLA-A2402 (HLA-A2402): binding to HLA-A2402 was observed

RYLRDQQLLGI [HIV-derived peptide, reference compound]
cellular cytotoxicity of CTLs against peptide-pulsed T2A24 [1]: hardly any radiation due to damaged cells was detected

TYAGCLSQIF [93(10), TYAGCLSQIF]
cellular cytotoxicity (kill %) [2]: higher cellular cytotoxicity
